Assay [1] concerns the target T1, recombinant human CTNNA3 (CTNNA3-FLAG) (human, UniProt Q9UI47-1 1-895).
T1 sequence (looked up): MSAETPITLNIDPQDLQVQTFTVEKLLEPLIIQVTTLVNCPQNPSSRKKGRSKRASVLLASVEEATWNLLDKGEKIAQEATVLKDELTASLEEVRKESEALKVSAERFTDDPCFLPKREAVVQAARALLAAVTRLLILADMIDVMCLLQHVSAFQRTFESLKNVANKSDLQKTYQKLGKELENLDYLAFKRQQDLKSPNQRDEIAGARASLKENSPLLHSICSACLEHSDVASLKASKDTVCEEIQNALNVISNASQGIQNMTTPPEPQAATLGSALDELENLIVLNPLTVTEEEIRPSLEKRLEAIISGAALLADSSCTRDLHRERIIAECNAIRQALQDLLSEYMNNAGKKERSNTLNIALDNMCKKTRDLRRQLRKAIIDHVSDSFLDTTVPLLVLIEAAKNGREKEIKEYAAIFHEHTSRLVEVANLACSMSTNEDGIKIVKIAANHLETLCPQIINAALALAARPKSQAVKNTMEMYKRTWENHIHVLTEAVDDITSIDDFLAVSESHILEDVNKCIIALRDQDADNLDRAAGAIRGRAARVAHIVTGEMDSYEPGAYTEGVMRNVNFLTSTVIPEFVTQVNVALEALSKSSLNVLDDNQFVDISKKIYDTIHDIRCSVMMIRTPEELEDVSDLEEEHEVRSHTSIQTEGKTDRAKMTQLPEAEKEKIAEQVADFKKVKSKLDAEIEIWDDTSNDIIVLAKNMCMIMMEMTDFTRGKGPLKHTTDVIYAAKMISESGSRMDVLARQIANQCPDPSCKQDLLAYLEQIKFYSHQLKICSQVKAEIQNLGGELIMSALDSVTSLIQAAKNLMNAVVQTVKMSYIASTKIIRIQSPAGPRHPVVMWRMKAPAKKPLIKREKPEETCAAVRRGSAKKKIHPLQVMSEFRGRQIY
In words: co-IP.

For assay [2], the target named is recombinant human p53 (p53-FLAG) (human, UniProt P04637 1-393). The experiment in a line: co-IP.
Sequence of recombinant human p53 (p53-FLAG) (P04637 whole entry): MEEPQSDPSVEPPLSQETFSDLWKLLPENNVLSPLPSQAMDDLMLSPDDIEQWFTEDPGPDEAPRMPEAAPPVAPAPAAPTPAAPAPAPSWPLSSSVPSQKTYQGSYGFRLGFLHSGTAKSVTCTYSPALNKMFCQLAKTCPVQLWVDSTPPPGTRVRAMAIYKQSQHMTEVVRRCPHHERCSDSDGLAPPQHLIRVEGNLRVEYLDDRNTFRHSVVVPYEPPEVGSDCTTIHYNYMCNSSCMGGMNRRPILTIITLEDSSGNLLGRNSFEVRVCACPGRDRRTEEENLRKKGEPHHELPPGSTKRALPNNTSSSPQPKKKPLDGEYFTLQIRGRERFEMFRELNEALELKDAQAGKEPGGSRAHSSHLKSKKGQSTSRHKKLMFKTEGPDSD
For assay [3], the target named is T1, recombinant human CTNNA3 (CTNNA3-FLAG). The experiment in a line: MST.
Assay [4] shares this target. In words: BLI. For orientation: BLI is a label-free optical method that tracks binding on a fibre tip over time.

Results on three molecules are retold here after paper PMC11695602 (Communications Biology, 2025).

One may read the Kd as the concentration at which binding is half-saturated.

B1: recombinant human FLAG-tagged fortilin (fortilin-FLAG) (natural protein, UniProt P13693 1-172, looked up)
chain: MIIYRDLISHDEMFSDIYKIREIADGLCLEVEGKMVSRTEGNIDDSLIGGNASAEGPEGEGTESTVITGVDIVMNHHLQETSFTKEAYKKYIKDYMKSIKGKLEEQRPERVKPFMTGAAEQIKHILANFKNYQFFIGENMNPDGMVALLDYREDGVTPYMIFFKDGLEMEKC
B1: the binding result in assay [1] and in assay [2] was “binds” throughout.

B2: recombinant human fortilin (rh-fortilin), Strep-tagged, red-maleimide-labelled (natural protein, UniProt P13693 1-172, looked up)
chain: MIIYRDLISHDEMFSDIYKIREIADGLCLEVEGKMVSRTEGNIDDSLIGGNASAEGPEGEGTESTVITGVDIVMNHHLQETSFTKEAYKKYIKDYMKSIKGKLEEQRPERVKPFMTGAAEQIKHILANFKNYQFFIGENMNPDGMVALLDYREDGVTPYMIFFKDGLEMEKC
modifications: red-maleimide fluorescent dye (Monolith red-maleimide 2nd generation protein labeling kit)
Consider B2, for which the equilibrium dissociation constant (Kd) in assay [3] came to 33.2 nM.

B3: recombinant human fortilin (rh-fortilin), Strep-tagged, biotinylated (natural protein, UniProt P13693 1-172, looked up)
chain: MIIYRDLISHDEMFSDIYKIREIADGLCLEVEGKMVSRTEGNIDDSLIGGNASAEGPEGEGTESTVITGVDIVMNHHLQETSFTKEAYKKYIKDYMKSIKGKLEEQRPERVKPFMTGAAEQIKHILANFKNYQFFIGENMNPDGMVALLDYREDGVTPYMIFFKDGLEMEKC
modifications: biotin
In the case of B3, the Kd in assay [4] turned out to be 36.1 nM.
